From article doi:10.1101/385401 (bioRxiv, 2018)
Where two headings read alike, the source gives them in different places.

Legend:
crystal structure = molecular target: the molecule itself; assay: crystal structure
[1] = molecular target: the molecule itself

| Protein | stoichiometry N (crystal structure) | stoichiometry N [1] |
| --- | --- | --- |
| Escherichia coli (Ec) dGTPase, wild type (enzyme, UniProt P15723 1-505, looked up) MAQIDFRKKINWHRRYRSPQGVKTEHEILRIFESDRGRIINSPAIRRLQQKTQVFPLERNAAVRTRLTHSMEVQQVGRYIAKEILSRLKELKLLEAYGLDELTGPFESIVEMSCLMHDIGNPPFGHFGEAAINDWFRQRLHPEDAESQPLTDDRCSVAALRLRDGEEPLNELRRKIRQDLCHFEGNAQGIRLVHTLMRMNLTWAQVGGILKYTRPAWWRGETPETHHYLMKKPGYYLSEEAYIARLRKELNLALYSRFPLTWIMEAADDISYCVADLEDAVEKRIFTVEQLYHHLHEAWGQHEKGSLFSLVVENAWEKSRSNSLSRSTEDQFFMYLRVNTLNKLVPYAAQRFIDNLPAIFAGTFNHALLEDASECSDLLKLYKNVAVKHVFSHPDVERLELQGYRVISGLLEIYRPLLSLSLSDFTELVEKERVKRFPIESRLFHKLSTRHRLAYVEAVSKLPSDSPEFPLWEYYYRCRLLQDYISGMTDLYAWDEYRRLMAVEQ | 6 | – |
| Ec-dGTPase H126A variant (enzyme, Escherichia coli, UniProt P15723 1-505, looked up) MAQIDFRKKINWHRRYRSPQGVKTEHEILRIFESDRGRIINSPAIRRLQQKTQVFPLERNAAVRTRLTHSMEVQQVGRYIAKEILSRLKELKLLEAYGLDELTGPFESIVEMSCLMHDIGNPPFGAFGEAAINDWFRQRLHPEDAESQPLTDDRCSVAALRLRDGEEPLNELRRKIRQDLCHFEGNAQGIRLVHTLMRMNLTWAQVGGILKYTRPAWWRGETPETHHYLMKKPGYYLSEEAYIARLRKELNLALYSRFPLTWIMEAADDISYCVADLEDAVEKRIFTVEQLYHHLHEAWGQHEKGSLFSLVVENAWEKSRSNSLSRSTEDQFFMYLRVNTLNKLVPYAAQRFIDNLPAIFAGTFNHALLEDASECSDLLKLYKNVAVKHVFSHPDVERLELQGYRVISGLLEIYRPLLSLSLSDFTELVEKERVKRFPIESRLFHKLSTRHRLAYVEAVSKLPSDSPEFPLWEYYYRCRLLQDYISGMTDLYAWDEYRRLMAVEQ | – | 6 |
| Ec-dGTPase Y272A variant (enzyme, Escherichia coli, UniProt P15723 1-505, looked up) MAQIDFRKKINWHRRYRSPQGVKTEHEILRIFESDRGRIINSPAIRRLQQKTQVFPLERNAAVRTRLTHSMEVQQVGRYIAKEILSRLKELKLLEAYGLDELTGPFESIVEMSCLMHDIGNPPFGHFGEAAINDWFRQRLHPEDAESQPLTDDRCSVAALRLRDGEEPLNELRRKIRQDLCHFEGNAQGIRLVHTLMRMNLTWAQVGGILKYTRPAWWRGETPETHHYLMKKPGYYLSEEAYIARLRKELNLALYSRFPLTWIMEAADDISACVADLEDAVEKRIFTVEQLYHHLHEAWGQHEKGSLFSLVVENAWEKSRSNSLSRSTEDQFFMYLRVNTLNKLVPYAAQRFIDNLPAIFAGTFNHALLEDASECSDLLKLYKNVAVKHVFSHPDVERLELQGYRVISGLLEIYRPLLSLSLSDFTELVEKERVKRFPIESRLFHKLSTRHRLAYVEAVSKLPSDSPEFPLWEYYYRCRLLQDYISGMTDLYAWDEYRRLMAVEQ | – | 6 |
| selenium methionine labelled Ec-dGTPase (enzyme, Escherichia coli, UniProt P15723 1-505, looked up, selenium methionine labelled) MAQIDFRKKINWHRRYRSPQGVKTEHEILRIFESDRGRIINSPAIRRLQQKTQVFPLERNAAVRTRLTHSMEVQQVGRYIAKEILSRLKELKLLEAYGLDELTGPFESIVEMSCLMHDIGNPPFGHFGEAAINDWFRQRLHPEDAESQPLTDDRCSVAALRLRDGEEPLNELRRKIRQDLCHFEGNAQGIRLVHTLMRMNLTWAQVGGILKYTRPAWWRGETPETHHYLMKKPGYYLSEEAYIARLRKELNLALYSRFPLTWIMEAADDISYCVADLEDAVEKRIFTVEQLYHHLHEAWGQHEKGSLFSLVVENAWEKSRSNSLSRSTEDQFFMYLRVNTLNKLVPYAAQRFIDNLPAIFAGTFNHALLEDASECSDLLKLYKNVAVKHVFSHPDVERLELQGYRVISGLLEIYRPLLSLSLSDFTELVEKERVKRFPIESRLFHKLSTRHRLAYVEAVSKLPSDSPEFPLWEYYYRCRLLQDYISGMTDLYAWDEYRRLMAVEQ | 6 | – |
| Ec-dGTPase E129A variant (enzyme, Escherichia coli, UniProt P15723 1-505, looked up) MAQIDFRKKINWHRRYRSPQGVKTEHEILRIFESDRGRIINSPAIRRLQQKTQVFPLERNAAVRTRLTHSMEVQQVGRYIAKEILSRLKELKLLEAYGLDELTGPFESIVEMSCLMHDIGNPPFGHFGAAAINDWFRQRLHPEDAESQPLTDDRCSVAALRLRDGEEPLNELRRKIRQDLCHFEGNAQGIRLVHTLMRMNLTWAQVGGILKYTRPAWWRGETPETHHYLMKKPGYYLSEEAYIARLRKELNLALYSRFPLTWIMEAADDISYCVADLEDAVEKRIFTVEQLYHHLHEAWGQHEKGSLFSLVVENAWEKSRSNSLSRSTEDQFFMYLRVNTLNKLVPYAAQRFIDNLPAIFAGTFNHALLEDASECSDLLKLYKNVAVKHVFSHPDVERLELQGYRVISGLLEIYRPLLSLSLSDFTELVEKERVKRFPIESRLFHKLSTRHRLAYVEAVSKLPSDSPEFPLWEYYYRCRLLQDYISGMTDLYAWDEYRRLMAVEQ | – | 6 |
